The values that follow come from US20170320927A1 (Novo Nordisk, published 2017).

Starred links: 1 amine or outer side, 2 acyl side, 3 side chain; linkers in the order of their positions; H or OH if unused. Non-standard residues stand in square brackets, D forms with d. Groups on a side chain read outwards from the residue. No end group written: not given here. *: point of attachment. Amino‑C3‑Gly(Bis) = branched linker 2-[bis(3-aminopropyl)amino]acetyl, two legs on the propylamino groups, O=C(CN(CCCN[*:1])CCCN[*:3])[*:2]; C20 diacid = O=C(O)CCCCCCCCCCCCCCCCCCC(=O)*; C18 diacid = O=C(O)CCCCCCCCCCCCCCCCC(=O)*; γGlu = O=C(O)[C@H](CCC(=O)[*:2])N[*:1]; Trx = NC[C@H]1CC[C@H](C(=O)O)CC1; AEEA = NCCOCCOCC(=O)O; Aib = CC(C)(N)C(=O)O

First the molecules themselves.
B1: N{Epsilon-37}-[2-[3-[[2-[2-[2-[[2-[2-[2-[[2-[2-[2-[[2-[2-[2-[[(2S)-2- … (peptide)
peptide: XXEGTFTSDVSSYLEEQAAREFIAWLVRGRK
modifications: not fully specified; Imp (imidazopropionic acid, deamino-histidine) at 7; Aib at 8; Lys37 epsilon-acylated with the branched side chain of the name (GLP-1(7-37) numbering, first residue = 7)
B2: N{Alpha}([Aib8,Glu22,Arg26,Arg34,Pro37]-GLP-1-(7-37)-peptidyl)-N{Epsilon}[2-[bis[3-[[2-[2-[2-[[2-[2-[2-[[2-[2-[2-[[2-[2-[2-[[2-[2-[2-[[2-[2-[2-[[(4S)-4-carboxy- … (peptide)
peptide: H[Aib]EGTFTSDVSSYLEEQAAREFIAWLVRGRPK([Amino‑C3‑Gly(Bis)-code 2×AEEA-AEEA-AEEA-AEEA-AEEA-AEEA-γGlu-Trx-C20 diacid])
notes: analogue (8Aib, 22E, 26R, 34R, 37P, 38K) GLP-1(7-37)

The first assay addresses T1, human GLP-1 receptor (human, UniProt P43220 24-463). In words: cell-based or functional assay.
Consider B1, for which the “EC50 (pM), in vitro potency, CRE luciferase reporter gene assay in BHK cells expressing the human GLP-1 receptor” value (“EC50 (pM), in vitro potency” for short) amounted to 12 pM.

In the case of H[Aib]EGTFTSDVSSYLEEQAAREFIAWLVRK([AEEA-AEEA-AEEA-AEEA-AEEA-AEEA-Amino‑C3‑Gly(Bis)-code 2×γGlu-Trx-C20 diacid])RG (X = Aib) [N{Epsilon-35}-[2-[2-[2-[[2-[2-[2-[[2-[2-[2-[[2-[2-[2-[[2-[2-[2-[[2- …], the “EC50 (pM), in vitro potency” value was found to be 9.5 pM.

As to H[Aib]EGTFTSDVSSYLEEQAAREFIEWLVRGK([AEEA-AEEA-AEEA-AEEA-Amino‑C3‑Gly(Bis)-code 2×γGlu-C18 diacid])G, the “EC50 (pM), in vitro potency” value is 7.1 pM.

As for B2, the “EC50 (pM), in vitro potency” value came out at 15 pM.

A further assay addresses T1, human GLP-1 receptor. The experiment in a line: competitive SPA, displacement of [125I]-GLP-1-(7-36)NH2 from BHK membranes with human GLP-1 receptor, high HSA (2.0%). How it is done:
(§1) 1. For the receptor binding assay in the presence of low HSA (0.005%) 50 μl of the assay buffer was added to each well of an assay plate. Assay continued with step 3. 2. For the receptor binding assay in the presence of high HSA (2%) 50 μl of the 8% albumin stock was added to each well of an assay plate. Assay continued with step 3. 3. […] 4. Cell membrane aliquots were thawed and diluted to their working concentration. Fifty μl were added to each well in the assay plate. 5. WGA SPA beads were suspended in assay buffer at 20 mg/ml. The suspension was diluted to 10 mg/ml in assay buffer just prior to addition to the assay plate. Fifty μl were added to each well in the assay plate. 6. […] A 25 μl aliquot was reserved for measuring total counts/well. 7. The assay plate was incubated for 2 h at 30° C. 8. The assay plate was centrifuged for 10 min. 9. The assay plate was read in a Packard TopCount NXT instrument.
(§2) The data from the TopCount instrument were transferred to GraphPad Prism software. Individual replicates were analysed using non-linear regression.
A general note: Displacement assays read how much labelled ligand stays bound in the presence of the test substance.
With B1, the IC50 – broadly, the concentration needed to halve the response being measured – was 45 nM.

Consider H[Aib]EGTFTSDVSSYLEEQAAREFIAWLVRK([AEEA-AEEA-AEEA-AEEA-AEEA-AEEA-Amino‑C3‑Gly(Bis)-code 2×γGlu-Trx-C20 diacid])RG (X = Aib) [N{Epsilon-35}-[2-[2-[2-[[2-[2-[2-[[2-[2-[2-[[2-[2-[2-[[2-[2-[2-[[2- …], for which the IC50 came to 7.2 nM.

The molecule H[Aib]EGTFTSDVSSYLEEQAAREFIEWLVRGK([AEEA-AEEA-AEEA-AEEA-Amino‑C3‑Gly(Bis)-code 2×γGlu-C18 diacid])G displayed an IC50 of 110 nM.

Take B2: the IC50 was 30 nM.

A further assay concerns the target T1, human GLP-1 receptor. In words: competitive SPA, displacement of [125I]-GLP-1-(7-36)NH2 from BHK membranes with human GLP-1 receptor, low HSA (max. 0.001%). The procedure: as §1, with “For the receptor binding assay in the presence of low HSA (0.005%) 50 μl of the assay buffer was added to each well of an assay plate.” left out
as §2
As for B1, the IC50 turned out to be 0.13 nM.

On to H[Aib]EGTFTSDVSSYLEEQAAREFIAWLVRK([AEEA-AEEA-AEEA-AEEA-AEEA-AEEA-Amino‑C3‑Gly(Bis)-code 2×γGlu-Trx-C20 diacid])RG (X = Aib) [N{Epsilon-35}-[2-[2-[2-[[2-[2-[2-[[2-[2-[2-[[2-[2-[2-[[2-[2-[2-[[2- …], for which the IC50 was 0.33 nM.

Take H[Aib]EGTFTSDVSSYLEEQAAREFIEWLVRGK([AEEA-AEEA-AEEA-AEEA-Amino‑C3‑Gly(Bis)-code 2×γGlu-C18 diacid])G: the IC50 turned out to be 1.1 nM. This IC50 is about 3.3-fold higher than that of the molecule before.

As for H[Aib]EGTFTSDVSSYLEEQAAREFIAWLVRGK([AEEA-AEEA-AEEA-AEEA-AEEA-AEEA-Amino‑C3‑Gly(Bis)-code 2×γGlu-Trx-C20 diacid])G [N{Epsilon-36}-[2-[2-[2-[[2-[2-[2-[[2-[2-[2-[[2-[2-[2-[[2-[2-[2-[[2- …], the IC50 came out at 1.2 nM. This IC50 and that of the molecule before are within 1.5-fold of each other.

Regarding H[Aib]EGTFTSDVSSYLEEQAAREFIAWLVRGK([Amino‑C3‑Gly(Bis)-code 2×AEEA-AEEA-AEEA-AEEA-γGlu-C18 diacid])G, the IC50 was 0.68 nM.

B2: the IC50 stood at 0.31 nM. This IC50 is about 2.2-fold lower than that of the molecule before.
